# Molecular target: PR8-PB1-GST (influenza A virus A/Puerto Rico/8/1934 …, UniProt P03431 1-757)
# Experiment: pull-down
# Conditions: both partners purified
binder,measurement,value
"TRIM32-HIS (natural protein, human, UniProt Q13049 1-653, looked up, also called HIS-TRIM32; HIS-tagged TRIM32) MAAAAASHLNLDALREVLECPICMESFTEEQLRPKLLHCGHTICRQCLEKLLASSINGVRCPFCSKITRITSLTQLTDNLTVLKIIDTAGLSEAVGLLMCRSCGRRLPRQFCRSCGLVLCEPCREADHQPPGHCTLPVKEAAEERRRDFGEKLTRLRELMGELQRRKAALEGVSKDLQARYKAVLQEYGHEERRVQDELARSRKFFTGSLAEVEKSNSQVVEEQSYLLNIAEVQAVSRCDYFLAKIKQADVALLEETADEEEPELTASLPRELTLQDVELLKVGHVGPLQIGQAVKKPRTVNVEDSWAMEATASAASTSVTFREMDMSPEEVVASPRASPAKQRGPEAASNIQQCLFLKKMGAKGSTPGMFNLPVSLYVTSQGEVLVADRGNYRIQVFTRKGFLKEIRRSPSGIDSFVLSFLGADLPNLTPLSVAMNCQGLIGVTDSYDNSLKVYTLDGHCVACHRSQLSKPWGITALPSGQFVVTDVEGGKLWCFTVDRGSGVVKYSCLCSAVRPKFVTCDAEGTVYFTQGLGLNLENRQNEHHLEGGFSIGSVGPDGQLGRQISHFFSENEDFRCIAGMCVDARGDLIVADSSRKEILHFPKGGGYSVLIREGLTCPVGIALTPKGQLLVLDCWDHCIKIYSYHLRRYSTP",binding result,binds

# From publication PMC4461266 (PLoS Pathogens, 2015)
